Patent US20220112250A1

Target: Rat CaV2.2 channel (α1B splice variant e37a, α2δ1 and β3) expressed in HEK293T cells (rat) (UniProt Q02294)
Assay: cell-based or functional assay

Chain of UniProt Q02294 (Q02294 other isoform, or with tags, fused parts or gaps mutant, chain 1 of 3): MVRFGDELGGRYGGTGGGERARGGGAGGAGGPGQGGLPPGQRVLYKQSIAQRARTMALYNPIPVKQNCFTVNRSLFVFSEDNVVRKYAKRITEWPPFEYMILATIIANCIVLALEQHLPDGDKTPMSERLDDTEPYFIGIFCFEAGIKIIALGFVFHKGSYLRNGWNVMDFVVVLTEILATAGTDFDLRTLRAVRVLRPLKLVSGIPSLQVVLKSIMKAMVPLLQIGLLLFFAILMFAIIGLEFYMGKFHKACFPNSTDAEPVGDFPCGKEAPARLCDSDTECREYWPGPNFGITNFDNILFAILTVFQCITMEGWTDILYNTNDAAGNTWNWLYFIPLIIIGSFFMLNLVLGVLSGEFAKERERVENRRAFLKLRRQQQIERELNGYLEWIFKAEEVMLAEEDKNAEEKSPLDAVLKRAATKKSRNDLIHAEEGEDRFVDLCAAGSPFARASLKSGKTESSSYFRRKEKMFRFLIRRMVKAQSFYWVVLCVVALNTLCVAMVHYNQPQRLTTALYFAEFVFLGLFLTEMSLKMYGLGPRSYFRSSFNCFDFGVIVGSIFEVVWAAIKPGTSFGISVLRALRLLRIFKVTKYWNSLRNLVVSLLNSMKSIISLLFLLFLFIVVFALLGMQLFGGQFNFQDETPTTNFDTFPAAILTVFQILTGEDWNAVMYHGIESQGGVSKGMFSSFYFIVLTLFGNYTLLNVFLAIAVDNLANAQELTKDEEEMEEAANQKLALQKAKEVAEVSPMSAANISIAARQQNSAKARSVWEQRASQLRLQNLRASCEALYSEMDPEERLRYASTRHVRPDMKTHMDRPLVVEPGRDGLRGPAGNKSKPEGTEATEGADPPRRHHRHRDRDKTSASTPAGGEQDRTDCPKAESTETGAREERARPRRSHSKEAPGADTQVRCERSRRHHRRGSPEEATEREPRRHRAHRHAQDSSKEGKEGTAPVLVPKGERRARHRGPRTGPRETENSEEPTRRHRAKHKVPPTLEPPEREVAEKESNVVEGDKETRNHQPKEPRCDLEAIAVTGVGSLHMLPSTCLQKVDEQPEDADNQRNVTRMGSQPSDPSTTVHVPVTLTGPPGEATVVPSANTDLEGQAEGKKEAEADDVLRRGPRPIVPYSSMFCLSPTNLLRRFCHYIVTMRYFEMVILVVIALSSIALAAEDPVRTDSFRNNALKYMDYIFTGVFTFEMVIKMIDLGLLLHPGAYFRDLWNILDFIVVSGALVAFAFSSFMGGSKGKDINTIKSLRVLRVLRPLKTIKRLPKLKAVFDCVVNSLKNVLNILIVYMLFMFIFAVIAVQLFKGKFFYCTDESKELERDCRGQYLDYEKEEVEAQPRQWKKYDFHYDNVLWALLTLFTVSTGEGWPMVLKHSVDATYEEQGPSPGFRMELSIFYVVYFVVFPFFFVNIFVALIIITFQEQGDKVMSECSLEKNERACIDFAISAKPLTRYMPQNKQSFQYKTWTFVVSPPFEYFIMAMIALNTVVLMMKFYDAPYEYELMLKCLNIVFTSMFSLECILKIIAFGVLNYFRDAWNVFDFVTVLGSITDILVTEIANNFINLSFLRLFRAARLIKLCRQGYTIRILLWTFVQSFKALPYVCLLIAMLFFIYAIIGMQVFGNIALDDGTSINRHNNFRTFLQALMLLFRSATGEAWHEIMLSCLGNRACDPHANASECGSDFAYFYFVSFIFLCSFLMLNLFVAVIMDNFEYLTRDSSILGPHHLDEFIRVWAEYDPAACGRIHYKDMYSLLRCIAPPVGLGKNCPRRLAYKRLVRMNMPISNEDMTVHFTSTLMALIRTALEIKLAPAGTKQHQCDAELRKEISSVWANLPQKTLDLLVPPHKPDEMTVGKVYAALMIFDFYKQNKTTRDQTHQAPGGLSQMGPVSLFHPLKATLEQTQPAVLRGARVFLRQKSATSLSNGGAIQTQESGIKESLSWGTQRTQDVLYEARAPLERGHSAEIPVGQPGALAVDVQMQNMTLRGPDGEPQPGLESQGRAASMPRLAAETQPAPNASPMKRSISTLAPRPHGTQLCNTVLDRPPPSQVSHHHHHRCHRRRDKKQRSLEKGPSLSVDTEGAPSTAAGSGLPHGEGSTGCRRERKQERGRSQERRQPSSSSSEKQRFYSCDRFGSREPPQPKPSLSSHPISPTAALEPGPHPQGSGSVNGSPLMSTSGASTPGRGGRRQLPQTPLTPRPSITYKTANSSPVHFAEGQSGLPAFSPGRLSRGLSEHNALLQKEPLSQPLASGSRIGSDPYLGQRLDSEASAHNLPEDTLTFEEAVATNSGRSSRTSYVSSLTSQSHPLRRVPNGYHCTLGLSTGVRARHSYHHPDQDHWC
Chain of UniProt Q02294 (P54290 25-1091, stated change not applied, chain 2 of 3, further chain): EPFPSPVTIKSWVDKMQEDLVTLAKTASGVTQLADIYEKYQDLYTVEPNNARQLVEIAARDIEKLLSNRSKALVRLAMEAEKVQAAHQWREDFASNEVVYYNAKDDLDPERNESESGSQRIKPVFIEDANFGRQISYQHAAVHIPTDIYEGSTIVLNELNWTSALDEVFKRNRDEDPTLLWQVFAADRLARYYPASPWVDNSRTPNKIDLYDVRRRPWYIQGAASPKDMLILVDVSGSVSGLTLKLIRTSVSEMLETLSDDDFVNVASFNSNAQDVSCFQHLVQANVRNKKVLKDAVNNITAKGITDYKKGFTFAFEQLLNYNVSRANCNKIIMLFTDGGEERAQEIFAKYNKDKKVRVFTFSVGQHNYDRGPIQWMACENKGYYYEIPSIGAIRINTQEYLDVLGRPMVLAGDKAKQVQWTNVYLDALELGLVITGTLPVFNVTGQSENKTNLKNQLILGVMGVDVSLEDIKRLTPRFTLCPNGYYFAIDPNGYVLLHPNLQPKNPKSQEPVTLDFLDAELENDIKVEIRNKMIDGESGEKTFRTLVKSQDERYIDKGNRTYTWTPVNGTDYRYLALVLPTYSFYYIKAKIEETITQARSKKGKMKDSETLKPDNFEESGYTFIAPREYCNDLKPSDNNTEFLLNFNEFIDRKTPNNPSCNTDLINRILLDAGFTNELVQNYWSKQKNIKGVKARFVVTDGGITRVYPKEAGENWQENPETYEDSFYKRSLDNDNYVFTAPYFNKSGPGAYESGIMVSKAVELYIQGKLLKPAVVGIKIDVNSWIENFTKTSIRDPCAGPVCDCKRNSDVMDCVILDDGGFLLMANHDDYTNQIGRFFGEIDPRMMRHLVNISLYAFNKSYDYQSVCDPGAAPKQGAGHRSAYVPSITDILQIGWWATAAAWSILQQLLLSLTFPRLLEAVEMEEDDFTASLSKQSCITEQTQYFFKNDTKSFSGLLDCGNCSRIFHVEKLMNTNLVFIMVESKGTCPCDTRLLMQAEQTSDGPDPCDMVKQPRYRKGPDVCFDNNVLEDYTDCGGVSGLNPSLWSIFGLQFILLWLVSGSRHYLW
Chain of UniProt Q02294 (P54287 whole entry, stated change not applied, chain 3 of 3, further chain, canonical isoform): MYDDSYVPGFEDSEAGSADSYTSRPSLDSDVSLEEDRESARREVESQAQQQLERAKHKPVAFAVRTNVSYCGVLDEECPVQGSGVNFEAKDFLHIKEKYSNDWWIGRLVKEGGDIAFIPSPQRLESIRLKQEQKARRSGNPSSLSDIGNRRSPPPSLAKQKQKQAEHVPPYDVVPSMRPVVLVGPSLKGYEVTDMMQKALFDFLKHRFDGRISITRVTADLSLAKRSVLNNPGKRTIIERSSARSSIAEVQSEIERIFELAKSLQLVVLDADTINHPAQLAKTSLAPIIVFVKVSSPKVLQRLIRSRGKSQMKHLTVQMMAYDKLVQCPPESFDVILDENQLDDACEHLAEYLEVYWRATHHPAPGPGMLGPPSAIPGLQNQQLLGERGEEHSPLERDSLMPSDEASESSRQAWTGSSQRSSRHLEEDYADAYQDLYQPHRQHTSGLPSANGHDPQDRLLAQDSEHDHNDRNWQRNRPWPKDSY

## MVIIA (ziconotide) (peptide)
  half inhibitory concentration of CaV2.2 channel current: 0.0436 µM
